Assay results taken from the supplement of paper PMC7877785.
± gives the uncertainty stated by the source.

Experiment: self-splicing fitness, log relative to wild type (ln ratio); higher = more splicing; Tetrahymena group I intron in knt gene, E. coli kanamycin selection, DiMSum; sequences stand for … in CUCUCU…GGAGGGAAAAGUUAUCAGGCAUGCACCUGGUAGCUAGUCUUUAAACCAAUAGAUUGCAUCGGUUUAAAAGGCAAGACCGUCAAAUUGCGGGAAAGGGGUCAACAGCCGUUCAGUACCAAGUCUCAGGGGAAACUUUGAGAUGGCCUUGCAAAGGGUAUGGUAAUAAGCUGACGGACAUGGUCCUAACCACGCAGCCAAGUCCUAAGUCAACAGAUCUUCUGUUGAUAUGGAUGCAGUUCACAGACUAAAUGUCGGUCGGGGAAGAUGUAUUCUUCUCAUAAGAUAUAGUCGGACCUCUCCUUAAUGGGAGCUAGCGGAUGAAGUGAUGCAACACUGGAGCCGCUGGGAACUAAUUUGUAUGCGAAAGUAUAUUGAUUAGUUUUGGAGUACUCGUGGUCG
Method in brief: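 Library with all eight P1ex-region intron nucleotides randomised, intron inside the knt kanamycin-resistance gene on pET-22b(+), in E. coli BL21(DE3). Cells grew overnight at 37°C or 30°C on LB agar with or without 25 μg/mL kanamycin (plus 100 μg/mL carbenicillin, 50 μM IPTG, 0.2% rhamnose), in six replicate transformations. Pooled colonies were amplicon-sequenced on Illumina HiSeq 2500. DiMSum fitness is the error-weighted combination of wild-type-normalised replicate fold changes, kanamycin versus none.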

Row | Sequence | self-splicing fitness (ln) (30 °C) | self-splicing fitness (ln) (37 °C)
1 | UAAUAGCAAUAUUACGAUGG | -3.31 ± 0.16 | -1.18 ± 0.13
2 | UAAUAGCAAUAUUACGAUUC | – | -2.05 ± 0.23
3 | UAAUAGCAAUAUUACGCACC | -2.04 ± 0.21 | -0.918 ± 0.24
4 | UAAUAGCAAUAUUACGCAUU | -2.83 ± 0.21 | -2.15 ± 0.28
5 | UAAUAGCAAUAUUACGCGCA | -1.13 ± 0.086 | 0.129 ± 0.1
6 | UAAUAGCAAUAUUACGCGGU | -3 ± 0.31 | -2.29 ± 0.35
7 | UAAUAGCAAUAUUACGCGUU | -4.21 ± 0.17 | -2.66 ± 0.15
8 | UAAUAGCAAUAUUACGCUCA | -0.0964 ± 0.088 | -0.235 ± 0.096
9 | UAAUAGCAAUAUUACGCUUG | -0.7 ± 0.082 | -0.621 ± 0.096
10 | UAAUAGCAAUAUUACGGAUC | – | -2.05 ± 0.41
11 | UAAUAGCAAUAUUACGGCGA | -1.6 ± 0.21 | -0.266 ± 0.22
12 | UAAUAGCAAUAUUACGGGGG | -3.12 ± 0.19 | -3.37 ± 0.39
13 | UAAUAGCAAUAUUACGGUCA | -0.412 ± 0.11 | -0.333 ± 0.11
14 | UAAUAGCAAUAUUACGGUGG | -4.08 ± 0.25 | -1.12 ± 0.12
15 | UAAUAGCAAUAUUACGGUUC | -2.91 ± 0.29 | –
16 | UAAUAGCAAUAUUACGUCAC | -3.93 ± 0.26 | 0.0385 ± 0.19
17 | UAAUAGCAAUAUUACGUCAU | -4 ± 0.28 | -2.52 ± 0.22
18 | UAAUAGCAAUAUUACGUUCU | -2.47 ± 0.29 | -1.9 ± 0.32
19 | UAAUAGCAAUAUUACGUUUU | -4.25 ± 0.29 | -2.73 ± 0.17
20 | UACAAGCAAUAUUACGAAAU | -2.52 ± 0.16 | -3.01 ± 0.29
21 | UACAAGCAAUAUUACGAUAG | -2.16 ± 0.093 | -0.848 ± 0.089
22 | UACAAGCAAUAUUACGAUCU | -0.941 ± 0.075 | -0.61 ± 0.077
23 | UACAAGCAAUAUUACGAUUC | -3.23 ± 0.13 | -2.04 ± 0.16
24 | UACAAGCAAUAUUACGAUUG | -3.18 ± 0.17 | -1.8 ± 0.17
25 | UACAAGCAAUAUUACGCAAG | -2.81 ± 0.12 | -1.6 ± 0.11

Row | Sequence | self-splicing fitness (ln) (30 °C) | self-splicing fitness (ln) (37 °C)
26 | UACAAGCAAUAUUACGCAGA | -2.31 ± 0.15 | -1.29 ± 0.1
27 | UACAAGCAAUAUUACGCCAA | -1.74 ± 0.18 | -1.07 ± 0.15
28 | UACAAGCAAUAUUACGCCUC | -3.38 ± 0.48 | -2.1 ± 0.4
29 | UACAAGCAAUAUUACGCGAA | -2.37 ± 0.099 | -0.769 ± 0.095
30 | UACAAGCAAUAUUACGCGCA | -0.13 ± 0.081 | 0.163 ± 0.11
31 | UACAAGCAAUAUUACGCGUG | -2.09 ± 0.11 | -1.37 ± 0.098
32 | UACAAGCAAUAUUACGGAAC | -3.75 ± 0.27 | -2.28 ± 0.25
33 | UACAAGCAAUAUUACGGACC | -2.74 ± 0.14 | -0.499 ± 0.18
34 | UACAAGCAAUAUUACGGCAG | -0.426 ± 0.078 | -0.134 ± 0.11
35 | UACAAGCAAUAUUACGGCCA | -0.557 ± 0.14 | 0.111 ± 0.16
36 | UACAAGCAAUAUUACGGCGG | -0.215 ± 0.065 | 0.218 ± 0.084
37 | UACAAGCAAUAUUACGGGGC | -5.04 ± 0.34 | -2.46 ± 0.17
38 | UACAAGCAAUAUUACGGUAC | -4.41 ± 0.31 | -3.1 ± 0.33
39 | UACAAGCAAUAUUACGUAAG | -3.96 ± 0.21 | -3.05 ± 0.19
40 | UACAAGCAAUAUUACGUAUA | -2.22 ± 0.13 | -0.891 ± 0.12
41 | UACAAGCAAUAUUACGUCAA | -3.18 ± 0.2 | -1.67 ± 0.13
42 | UACAAGCAAUAUUACGUGAG | -3.54 ± 0.17 | -1.91 ± 0.14
43 | UACAAGCAAUAUUACGUUAC | -4.21 ± 0.23 | -2.84 ± 0.22
44 | UACCAGCAAUAUUACGAAAG | -1.95 ± 0.15 | -1.28 ± 0.15
45 | UACCAGCAAUAUUACGACAU | -1.381 ± 0.012 | -0.566 ± 0.032
46 | UACCAGCAAUAUUACGACGC | -2.41 ± 0.12 | -1.73 ± 0.15
47 | UACCAGCAAUAUUACGACGG | -0.833 ± 0.06 | -0.237 ± 0.094
48 | UACCAGCAAUAUUACGAGAC | -2.38 ± 0.18 | -1.54 ± 0.2
49 | UACCAGCAAUAUUACGAGCA | -0.673 ± 0.066 | 0.225 ± 0.09
50 | UACCAGCAAUAUUACGAUAG | -1.1 ± 0.067 | 0.0475 ± 0.097

Row | Sequence | self-splicing fitness (ln) (30 °C) | self-splicing fitness (ln) (37 °C)
51 | UACCAGCAAUAUUACGAUCU | -1.77 ± 0.13 | -1.08 ± 0.16
52 | UACCAGCAAUAUUACGCAAA | -1.54 ± 0.081 | 0.0436 ± 0.096
53 | UACCAGCAAUAUUACGCCUU | -0.707 ± 0.066 | -0.62 ± 0.074
54 | UACCAGCAAUAUUACGGCUG | -3.63 ± 0.14 | -2 ± 0.15
55 | UACCAGCAAUAUUACGGGGU | -4.41 ± 0.16 | -2.68 ± 0.15
56 | UACCAGCAAUAUUACGUAAA | -0.982 ± 0.071 | -0.408 ± 0.097
57 | UACCAGCAAUAUUACGUACA | -0.719 ± 0.071 | -0.432 ± 0.1
58 | UACCAGCAAUAUUACGUCAG | -0.702 ± 0.095 | -1.16 ± 0.11
59 | UACCAGCAAUAUUACGUUCG | -0.545 ± 0.071 | 0.0802 ± 0.092
60 | UACGAGCAAUAUUACGAAGA | -2.13 ± 0.37 | –
61 | UACGAGCAAUAUUACGAAGC | -2.71 ± 0.35 | -0.927 ± 0.34
62 | UACGAGCAAUAUUACGAAGU | -4.33 ± 0.39 | -2.41 ± 0.24
63 | UACGAGCAAUAUUACGACAA | -2.15 ± 0.47 | -1.2 ± 0.31
64 | UACGAGCAAUAUUACGACGA | -1.85 ± 0.18 | -0.325 ± 0.13
65 | UACGAGCAAUAUUACGAGUA | -2.84 ± 0.15 | -2.52 ± 0.15
66 | UACGAGCAAUAUUACGCAGA | – | -2.33 ± 0.31
67 | UACGAGCAAUAUUACGCAUG | -2.37 ± 0.25 | -2.25 ± 0.24
68 | UACGAGCAAUAUUACGCCAU | – | -1.84 ± 0.31
69 | UACGAGCAAUAUUACGCCUU | -3.54 ± 0.43 | –
70 | UACGAGCAAUAUUACGCGAU | -4.05 ± 0.3 | -2.28 ± 0.22
71 | UACGAGCAAUAUUACGCGUA | – | -2.35 ± 0.41
72 | UACGAGCAAUAUUACGCUGG | -3.2 ± 0.27 | -1.77 ± 0.16
73 | UACGAGCAAUAUUACGGAUU | -2.38 ± 0.33 | –
74 | UACGAGCAAUAUUACGGCAC | – | -2.53 ± 0.41
75 | UACGAGCAAUAUUACGUAAG | -3.58 ± 0.2 | -2.33 ± 0.19

Row | Sequence | self-splicing fitness (ln) (30 °C) | self-splicing fitness (ln) (37 °C)
76 | UACGAGCAAUAUUACGUAAU | -4.22 ± 0.31 | -1.43 ± 0.19
77 | UACGAGCAAUAUUACGUAGU | -3.39 ± 0.32 | -2.95 ± 0.33
78 | UACGAGCAAUAUUACGUCUA | -0.512 ± 0.1 | -0.152 ± 0.11
79 | UACGAGCAAUAUUACGUUAU | -3.45 ± 0.12 | -2.24 ± 0.099
80 | UACGAGCAAUAUUACGUUCA | -1.3 ± 0.11 | -0.719 ± 0.13
81 | UACUAGCAAUAUUACGAAAU | – | -3.34 ± 0.4
82 | UACUAGCAAUAUUACGAACC | – | -2.16 ± 0.22
83 | UACUAGCAAUAUUACGAACG | -0.328 ± 0.15 | -0.12 ± 0.18
84 | UACUAGCAAUAUUACGAACU | -1.14 ± 0.21 | -1.51 ± 0.25
85 | UACUAGCAAUAUUACGAGAA | -1.6 ± 0.33 | -0.769 ± 0.22
86 | UACUAGCAAUAUUACGAGAU | -2.46 ± 0.23 | -1.54 ± 0.28
87 | UACUAGCAAUAUUACGAGUA | -2.36 ± 0.18 | -1.77 ± 0.19
88 | UACUAGCAAUAUUACGAUCC | -3.14 ± 0.36 | -2.84 ± 0.38
89 | UACUAGCAAUAUUACGAUUG | -1.88 ± 0.16 | -0.352 ± 0.21
90 | UACUAGCAAUAUUACGCGGC | -4.73 ± 0.46 | -2.95 ± 0.4
91 | UACUAGCAAUAUUACGGAUU | -2.82 ± 0.12 | -1.56 ± 0.13
92 | UACUAGCAAUAUUACGGGGC | -3.02 ± 0.3 | -2.5 ± 0.44
93 | UACUAGCAAUAUUACGGGGG | -2.19 ± 0.12 | -1.31 ± 0.14
94 | UACUAGCAAUAUUACGUCUG | -0.817 ± 0.07 | -0.845 ± 0.086
95 | UACUAGCAAUAUUACGUGGC | -2.44 ± 0.18 | -2.91 ± 0.28
96 | UACUAGCAAUAUUACGUGUC | -3.38 ± 0.17 | -2.79 ± 0.15
97 | UACUAGCAAUAUUACGUUAC | -3.86 ± 0.27 | -2.44 ± 0.3
98 | UACUAGCAAUAUUACGUUCC | -2.22 ± 0.32 | -2.33 ± 0.35
99 | UACUAGCAAUAUUACGUUGG | -2.61 ± 0.14 | -0.807 ± 0.15
